According to PMC2660430:

Target: PfSAHH (recombinant S-adenosyl-L-homocysteine hydrolase), P50250
Assay: SPR
Conditions: chain shown with the change; Maximum response at end of analyte injection; SAHH on the sensor surface oxidized with 0.5 mM DTNB; 30 µl of analyte, 10 µM in HBS buffer; pre-injection …; parent: est. 93; read off a plot

Sequence of PfSAHH (recombinant S-adenosyl-L-homocysteine hydrolase), P50250 (P50250 whole entry): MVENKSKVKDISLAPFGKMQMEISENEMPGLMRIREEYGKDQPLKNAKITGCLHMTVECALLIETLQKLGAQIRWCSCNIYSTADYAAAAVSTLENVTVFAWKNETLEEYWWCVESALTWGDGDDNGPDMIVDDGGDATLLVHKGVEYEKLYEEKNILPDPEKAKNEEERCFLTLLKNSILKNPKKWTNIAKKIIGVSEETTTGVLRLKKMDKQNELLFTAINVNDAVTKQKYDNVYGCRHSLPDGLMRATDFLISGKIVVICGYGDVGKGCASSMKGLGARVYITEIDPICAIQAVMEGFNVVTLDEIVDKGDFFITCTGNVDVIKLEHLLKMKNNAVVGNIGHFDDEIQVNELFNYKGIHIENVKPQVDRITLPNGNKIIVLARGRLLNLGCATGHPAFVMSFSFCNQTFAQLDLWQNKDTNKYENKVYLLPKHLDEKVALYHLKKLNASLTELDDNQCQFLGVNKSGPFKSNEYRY

B1: PfGrx1 (wild type glutaredoxin) C32S (protein)
chain: MAGTSEAVKKWVNKIIEENIIAVFAKTECPYSIKAISILKGYNLNSHMHVENIEKNPDMANIQAYLKELTGKSSVPRIFINKDVVGGCDDLVKENDEGKLKERLQKLGLVN
Which response (RD (normalized)) does the source give for B1 here?
The response (RD (normalized)) was 98.

B2: PfGrx1 (wild type glutaredoxin) C29S; C32S (protein)
chain: MAGTSEAVKKWVNKIIEENIIAVFAKTESPYSIKAISILKGYNLNSHMHVENIEKNPDMANIQAYLKELTGKSSVPRIFINKDVVGGCDDLVKENDEGKLKERLQKLGLVN
For B2, which response (RD (normalized)) is on record?
The response (RD (normalized)) was 59.
